According to the supplement of paper PMC7125110:
± gives the standard error. For some assays here: Fewer inactive variants are shown than the library holds.

B1: glmS ribozyme (parent)
chain: AUAAAAGCGCCAGAACUACAGAAAUGUAGUUGACGAGGAGGAGGUUUAUCGAAUUUUCGGCGGAUGCCUCCAAA

How the values were obtained:
Conditions in all cases: with glucosamine-6-phosphate
glucosamine-6-phosphate [1] = variants of: B1; test: kcat; higher = faster cleavage; RNA array
Procedure, shortened: (§1)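 kobs was derived by fitting per-tile medians to one- or two-exponential decays after normalising signals to baseline and to non-cleaving reference variants. Those signals came from barcoded ribozyme variants transcribed in situ by E. coli RNA polymerase on sequenced MiSeq chips, followed through a hybridised Cy3 probe at 37 °C and imaged over ~14 h. Glucosamine-6-phosphate (40 μM to 10 mM) in HEPES/KCl/Mg(OAc)2 buffer was flowed in. Weighted Michaelis–Menten fits across concentrations then gave kcat and KM.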

glucosamine-6-phosphate [2] = variants of: B1; test: KM; higher = weaker cofactor use; RNA array
Procedure, shortened: as §1

glucosamine-6-phosphate [3] = variants of: B1; test: self-cleavage kobs at 160 uM GlcN6P; higher = faster cleavage; RNA array
Procedure, shortened: as §1

glucosamine-6-phosphate [4] = variants of: B1; test: self-cleavage kobs at 640 uM GlcN6P; higher = faster cleavage; RNA array
Procedure, shortened: as §1

glucosamine-6-phosphate [5] = variants of: B1; test: self-cleavage kobs at 2500 uM GlcN6P; higher = faster cleavage; RNA array
Procedure, shortened: as §1

glucosamine-6-phosphate [6] = variants of: B1; test: self-cleavage kobs at 10000 uM GlcN6P; higher = faster cleavage; RNA array
Procedure, shortened: as §1

glucosamine-6-phosphate [7] = variants of: B1; test: self-cleavage kobs at 40 uM GlcN6P; higher = faster cleavage; RNA array
Procedure, shortened: as §1

Row | Variant | kcat (glucosamine-6-phosphate [1]) [s⁻¹] | KM (glucosamine-6-phosphate [2]) [µM] | self-cleavage kobs at 160 uM GlcN6P (glucosamine-6-phosphate [3]) [s⁻¹] | self-cleavage kobs at 640 uM GlcN6P (glucosamine-6-phosphate [4]) [s⁻¹] | self-cleavage kobs at 2500 uM GlcN6P (glucosamine-6-phosphate [5]) [s⁻¹] | self-cleavage kobs at 10000 uM GlcN6P (glucosamine-6-phosphate [6]) [s⁻¹] | self-cleavage kobs at 40 uM GlcN6P (glucosamine-6-phosphate [7]) [s⁻¹]
1 | C16U C58A C67G | 0.000119 ± 2.4e-06 | 283 ± 23 | 4.51e-05 ± 1.9e-05 | 8.08e-05 ± 1.6e-05 | 0.000106 ± 2e-05 | 0.000118 ± 2.5e-05 | 
2 | A33G C50G | 0.000122 ± 3.3e-05 |  | 7.8e-05 ± 1.6e-05 | 0.000161 ± 2.3e-05 | 0.000102 ± 1.6e-05 |  | 
3 | A39C U65G | 0.00143 ± 8.9e-05 | 3200 ± 380 | 7.31e-05 ± 2e-05 | 0.000243 ± 3.9e-05 | 0.000558 ± 9.7e-05 | 0.0011 ± 9.8e-05 | 
4 | C16A C50U | < 1e-05 |  |  |  |  |  | < 1e-05
5 | G32A G40A | 0.000781 ± 2.4e-05 | 2220 ± 130 | 5.38e-05 ± 1.8e-05 | 0.000175 ± 3.4e-05 | 0.000414 ± 6.4e-05 | 0.000639 ± 8.9e-05 | 
6 | G66C U69C | 0.000157 ± 7.2e-05 |  |  | 7.5e-05 ± 2.8e-05 | 6.79e-05 ± 1.5e-05 | 0.000137 ± 2.8e-05 | 
7 | A52U U56C | 2.72e-05 ± 1.5e-06 | 1210 ± 330 |  |  |  |  | 
8 | A12C U69A | 0.000833 ± 0.00013 | 4330 ± 1100 |  | 0.000117 ± 2.1e-05 | 0.00027 ± 4.6e-05 | 0.000614 ± 9.4e-05 | 
9 | C58A G66U | 5.19e-05 ± 5.8e-06 |  |  |  |  | 4.3e-05 ± 5.6e-06 | 
10 | A12U C67G | 0.00362 ± 0.00062 | 791 ± 210 | 0.000542 ± 0.00011 | 0.0015 ± 0.00029 | 0.00226 ± 0.00035 | 0.00426 ± 0.00054 | 0.00019 ± 2.1e-05
11 | G37U C68G | 2.11e-05 ± 5e-06 |  |  |  |  |  | 
12 | G13U G40U | 7.77e-05 ± 1.2e-05 |  |  | 3.55e-05 ± 9.5e-06 | 8.94e-05 ± 1.4e-05 | 6.79e-05 ± 8.5e-06 | 
13 | U69G C70U | 4.03e-05 ± 6.8e-06 |  | 4.73e-05 ± 1.4e-05 | 4.66e-05 ± 9.6e-06 | 5.03e-05 ± 8.5e-06 | 2.88e-05 ± 6.8e-06 | 
14 | G40A A42C | 2.78e-05 ± 3.3e-06 | 1680 ± 670 | < 1e-05 |  |  |  | 
15 | C34G A52G | < 1e-05 |  |  |  | < 1e-05 |  | 
16 | C16G C68A | 2.15e-05 ± 6.1e-06 |  |  |  |  |  | 
17 | A14U A64G | 0.00805 ± 0.003 | 2740 ± 1300 | 0.000391 ± 4.2e-05 | 0.00143 ± 0.00016 | 0.00635 ± 0.00079 | 0.00568 ± 0.00075 | 0.000177 ± 2.5e-05
18 | U31A C68G | 3.4e-05 ± 9.3e-07 | 408 ± 78 |  |  | 2.78e-05 ± 1.1e-05 | 3.32e-05 ± 8.1e-06 | 
